Laboratory results as given in patent US20130022605A1 (published 2013).
Values belong to the binder of their own block, whether it stands above or below them.

How the values were obtained:
[1] = biological target: T1, human TNFR1 (human p55 TNF receptor) (human, UniProt P19438 30-211, limits assumed); assay: SPR on biotinylated TNFR1, competition with chimeric TNFR1
T1 construct: also called TAR2; human TNF receptor 1
T1 sequence: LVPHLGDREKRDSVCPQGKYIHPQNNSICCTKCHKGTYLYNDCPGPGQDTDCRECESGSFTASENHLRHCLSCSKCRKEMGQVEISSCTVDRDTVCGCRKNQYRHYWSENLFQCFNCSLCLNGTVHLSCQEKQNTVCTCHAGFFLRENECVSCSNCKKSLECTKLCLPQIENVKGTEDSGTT
Method: This example describes a method that was used to determine the domain specificity of dAbs that bind TNFR1. […] If the dAb is pre-incubated and equilibrated with a chimeric molecule that comprises the domain(s) of TNFR1 that the particular dAb binds, then flow of this mixture over the TNFR1 surface will produce a smaller SPR signal relative to the dAb alone.
Once the optimum anti-TNFR1 dAb concentration was determined, anti-TNFR1 dAb/chimeric TNFR1 mixes were set up. Mixes were set up such that the final concentration of anti-TNFR1 dAb was identical to the optimal concentration determined previously. Reactions were typically set up in 100 μl volumes containing 50 microliters of a 2× concentrate of anti-TNFR1 dAb, 40 microliters of Biacore buffer and 10 microliters of neat, purified chimeric protein. Typical concentrations for the final mix were about 10-100 μM of chimeric protein and about 10-100 nM anti-TNFR1 dAb. Mixtures were allowed to equilibrate for 30 minutes at room temperature.

hen egg lysozyme = biological target: T2, hen egg lysozyme (hen, UniProt P00698 19-147); assay: selection from a dAb library
T2 construct: also called HEL
T2 sequence (P00698 19-147): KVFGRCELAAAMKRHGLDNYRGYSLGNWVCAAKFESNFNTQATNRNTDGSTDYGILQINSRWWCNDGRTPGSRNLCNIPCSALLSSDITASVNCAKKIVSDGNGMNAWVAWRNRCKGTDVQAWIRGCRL

[2] = biological target: T3, mouse TNFR1 on L929 cells (mouse, UniProt P25118 30-454); assay: cell-based or functional assay
T3 sequence (looked up): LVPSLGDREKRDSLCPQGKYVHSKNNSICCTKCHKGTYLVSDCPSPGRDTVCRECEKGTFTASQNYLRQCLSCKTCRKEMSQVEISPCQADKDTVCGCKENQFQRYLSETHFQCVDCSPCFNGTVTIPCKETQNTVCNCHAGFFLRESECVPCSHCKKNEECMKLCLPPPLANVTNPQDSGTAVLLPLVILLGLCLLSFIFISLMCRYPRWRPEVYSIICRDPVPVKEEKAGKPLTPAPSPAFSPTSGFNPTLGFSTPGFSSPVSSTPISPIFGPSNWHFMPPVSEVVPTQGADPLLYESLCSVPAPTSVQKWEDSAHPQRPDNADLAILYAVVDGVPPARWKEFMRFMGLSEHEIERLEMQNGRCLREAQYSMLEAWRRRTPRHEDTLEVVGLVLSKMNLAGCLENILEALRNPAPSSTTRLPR

mouse TNFR1 = biological target: T4, mouse TNFR1 (mouse, UniProt P25118 30-212, limits assumed); assay: receptor binding assay
T4 construct: also called murine TNFR1; biotinylated murine TNFR1
T4 sequence: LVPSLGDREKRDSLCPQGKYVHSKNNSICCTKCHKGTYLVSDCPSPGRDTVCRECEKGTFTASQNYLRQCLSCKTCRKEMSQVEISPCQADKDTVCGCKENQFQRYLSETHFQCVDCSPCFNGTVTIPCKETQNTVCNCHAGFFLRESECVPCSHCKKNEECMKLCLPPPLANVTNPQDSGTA

[3] = biological target: T3, mouse TNFR1 on L929 cells; assay: cell-based or functional assay; remark: listed apart in the source

B1: TAR2h-15-8 (other)
chain: EVRLLESGGGLVQPGGSLRLSCVASGFTFGKSTMTWVRQAPGKGLEWVSHISDDGNSTYYADSVKGRFTISRDNSKNTLYLQMNSLRAEDTAVYYCAKVPILAPRNLFDYWGQGTLVTVSS
notes: anti-human TNFR1 dAb
binding result [1]: binds

B2: TAR2h-131-8 (other)
chain: EVQLLESGGGLIQPGGSLRLSCAASGFTFAHETMVWVRQAPGKGLEWVSHIDRVGQDTYYADSVKGRFTISRDNSKNTLYLQMNSLRAEDTAVYYCAKLPKRGPWFDYRGQGTLVTVSS
notes: anti-human TNFR1 dAb
binding result [1]: binds

B7: TAR2m-21-17 (other)
chain: EVQLLESGGGLVQPGGSLRLSCAASGFTFTRYSMGWVRQAPGKGLEWVSRIDSYGRGTYYADSVKGRFTISRDNSKNTLYLQMNSLRAEDTAVYYCAKISQFGSNAFDYWGQGTVVTVSS
L929 Cell Assay, Activity (IC50) [2]: 0.3 µM

Other lines, results leading:

binding result (hen egg lysozyme): binds
B3: HEL4 (other)
VH: EVQLLESGGGLVQPGGSLRLSCAASGFRISDEDMGWVRQAPGKGLEWVSSIYGPSGSTYYADSVKGRFTISRDNSKNTLYLQMNSLRAEDTAVYYCASALEPLSEPLGFWGQGTLVTVSS
notes: VH dAb

L929 Cell Assay, Activity (IC50) [2]: 10 µM
IC50 (mouse TNFR1): 2000 nM
B4: TAR2m-19 (other)
chain: EVQLLESGGGLVQPGGSLRLSCAASGFTFRKYDMHWVRQAPGKGLEWVSTISPSGRRTYYADSVKGRFTISRDNSKNTLYLQMNSLRAEDTAVYYCAENLDQVLSFDYWGQGTLVTVSS
notes: anti-mouse TNFR1 dAb

IC50 (mouse TNFR1): 150 nM
B5: TAR2m-20 (other)
chain: EVQLLESGGGLVQPGGSLRLSCAASGFTFGSYSMSWVRQAPGKGLEWVSGIDNGGHSTYYADSVKGRFTISRDNSKNTLYLQMNSLRAEDTAVYYCAKRSSGLPFPFDYWGQGTLVTVSS
notes: anti-mouse TNFR1 dAb

binding result [1]: binds
B6: TAR2h-35-4 (other)
chain: EVQLLESGGGLVQPGGSLRLSCAASGFTFDAYNMFWFRQAPGKGPEWVSAIGPSGRETYYADSVKGRFTITRDNSKNTLYLQMNSLRAEDTAVYYCAKRYPDFDYWGQGTLVTVSS
notes: anti-human TNFR1 dAb

fold decrease in ND50 of the dimer against the monomer [3]: ~10 fold
B8: TAR2m21-23 dimer (other)
VH: EVQLLESGGGLVQPGGSLRLSCAASGFTFNRYSMGWLRQAPGKGLEWVSRIDSYGRGTYYEDPVKGRFSISRDNSKNTLYLQMNSLRAEDTAVYYCAKISQFGSNAFDYWGQGTQVTVSSC
